{
  "source": "paper PMC7865296",
  "about": "“T Cell Mediated Conversion of a Non-Anti-La Reactive B Cell to an Autoreactive Anti-La B Cell by Somatic Hypermutation †” (International Journal of Molecular Sciences, 2021)",
  "binders": {"B1": {"name": "anti-La monoclonal antibody 312B (antibody, V domains shown)", "VH": "QVKLQESGAELMKPGSSVKFSCKAAGYTFTDYWIEWLKQRPGHGLEWIGEILPGSVSIKYNEKFKGKATFTADTSSNTAYMQLSSLTSEDSAVYYCARSRSIYDGYFYYWGQGTTLTVSS", "VL": "DIVMTQSTASLSASVGETVTITCRASENIYTYLAWYQQKQGKSPQLLVYNAKTLAEGVPSRFSGSGSGTQFSLRINSLQPEDFGSYYCQHHYGTPYTFGGGTKLEIK", "notes": "IgG1; Vl 12-44, JK2; From the human La transgenic mouse; source: hybridoma cell culture supernatant"}, "B2": {"name": "recombinant antibody based on the mature 312B sequence (scFv fused on a human IgG4 hinge and Fc) (Fc fusion, mouse)", "VH": "B1 VH", "VL": "B1 VL", "notes": "linker, printed as (Gly4Ser)3; VH-VL orientation; an Igkappa leader peptide was fused to the N-terminus for secretion; vector p6NST50; source: stably transduced 3T3 cell line, purified from cell culture supernatant (protein A); not shown: hinge and Fc (CH2-CH3) of human IgG4, C-terminal, kept"}, "B3": {"name": "recombinant antibody based on the germline 312B sequence (scFv fused on a human IgG4 hinge and Fc) (Fc fusion, mouse)", "VH": "QVQLQQSGAELMKPGASVKLSCKATGYTFTGYWIEWVKQRPGHGLEWIGEILPGSGSTNYNEKFKGKATFTADTSSNTAYMQLSSLTTEDSAIYYCARSRSIYDGYFDYWGQGTTLTVSS", "VL": "B1 VL with V3Q, T8P, T31S, R74K", "notes": "as for B2"}, "B4": {"name": "IgM type anti-La monoclonal antibody 16C (antibody, V domains shown)", "VH": "EVKLEESGPELVKPGSSVKISCKASGYTFTDYNMDWVKQSHGKSLEWIGAINPNNGGTSYNQKFKGKATLTVDKSSSTAYMELRSLTSEDSAVYYCARRDGGSYEWAMDYWGQGTSVTVSS", "VL": "DIVLTQSPASLSMAIGEKVTIRCITSTDIDDDMNWYQQKPGEPPKLLISEGNTLRPGVPSRFSSSGYGTDFVFTIENMLSEDVADYYCLQSDNLPLTFGGGTKLEIK", "notes": "variable heavy chain of 16C; variable light chain of 16C; IgM; Vl bt20, JK2; From the human La transgenic mouse; called polyreactive; also called anti-La mab (16C); source: hybridoma cell culture supernatant"}, "B5": {"name": "anti-La monoclonal antibody 2F9 (antibody, V domains shown)", "VH": "EVQLQESGPGILQPSQTLSLTCSFSGFSLSTSGMGVSWIRQPSGKGLEWLAHIYWDDDKGYNPSLKSRLTISKDTSRNQVFLKITSVDTADTATYYCARGDVEFDYWGQGTTLTVSS", "VL": "DIVLTQSTASLAVSLGQRATISCRASESVDSYGNSFMHWYQQKPGQPPKLLIYRASNLESGIPARFSGSGSRTDFTLTINPVEADDVATYYCQQSNEDPPTFGSGTKLEIK", "notes": "variable heavy chain of 2F9; variable light chain of 2F9; IgG1; Vl 21-5, JK4; From the human La transgenic mouse; also called Group 2 anti-La mab (2F9); source: hybridoma cell culture supernatant"}, "B6": {"name": "IgM type anti-Ro60 monoclonal antibody 312G (antibody, V domains shown)", "VH": "EVQLEESGPGLVAPSQSLSITCTVSGFSLSRYSVHWVRQPPGKGLEWLGMIWGGGSTDYNSALKSRLSISKDNSKSQVFLKMNSLQTDDTAIYYCATSNWPYAMDYWGQGTSVTVSS", "VL": "DIVMTQSPAIMSASPGEKVTMTCSASSSVSYMHWYQQKSGTSPKRWIYDTSKLASGVPARFSGSGSGTSYSLTISSMEAEDAATYYCQQWSSNPPTFGAGTKLELK", "notes": "variable heavy chain of 312G; variable light chain of 312G; IgM; Vl kk4, JK5; From the human La transgenic mouse; called polyreactive; also called anti-Ro mab (312G); anti-Ro60 mab; source: hybridoma cell culture supernatant"}, "B7": {"name": "anti-La monoclonal antibody 24BG7 (antibody, V domains shown)", "VH": "QVQLQQSGAELARPGASVKLSCKASGYSLTNYGISWVKQRTGQGLEWIGEIYRGSGNSYYNEKFKGKASLTADKSSSTAYMQLSSLTSEDSAVYFCARGGLSFAYWGQGTLVTVSA", "VL": "B6 VL with D1Q, M4L, S30T, S76T, S91I, A99G, L105I", "notes": "variable heavy chain of 24BG7; variable light chain of 24BG7; IgG1; Vl kk4, JK2; From the human La transgenic mouse; also called Group 1 anti-La mab (24BG7); source: hybridoma cell culture supernatant"}, "B8": {"name": "anti-La monoclonal antibody 27E (antibody, V domains shown)", "VH": "EVQLQESGAELARPGASVKLSCKASGYSFRSYGINWVKQRTGQGLEWIGEIYPGSGTTFYNEKFRGKATLTADKSSSTAYMQLKSLTSEDSAVYFCARHGGYPFYFDYWGQGTTLTVSS", "VL": "DIVMTQSPAIMSASPGEKVTISCSASSSVSYMYWYQQKPGSSPKPWIYRTSNLASGVPARFSGSGSGTSYSLTISSMEAEDAATYYCQQYHSYPRTFGGGTKLEIK", "notes": "variable heavy chain of 27E; variable light chain of 27E; IgG2b; Vl aa4, JK1; From the human La transgenic mouse; also called Group 2 anti-La mab (27E); source: hybridoma cell culture supernatant"}, "B9": {"name": "anti-La monoclonal antibody 32A (antibody, V domains shown)", "VH": "EVQLQQSGAELARPGASVKLSCKASGYTFTTYGLTWVKQRTGQGLEWIGEIFPGSGTTFYNEKFNDKATLTADKSSSTAYMQLTSLTSEDSAVYFCARYSNYPYYFDYWGQGTTLTVSS", "VL": "B8 VL with D1Q, M4L, A9T, A59D", "notes": "variable heavy chain of 32A; variable light chain of 32A; IgG1; Vl aa4, JK1; From the human La transgenic mouse; also called Group 2 anti-La mab (32A); source: hybridoma cell culture supernatant"}, "B10": {"name": "anti-La monoclonal antibody 22A (antibody, V domains shown)", "VH": "QVKLEESGPELVKPGAPVKISCKTSGYTFTNYYIYWVKQRPGQGLEWIGYIYPGNGGTAYNQKFKDKATLTADNPSNTAYMQLSSLTSEDSAVYLCARRGALGYYFDYWGQGTTLTVSS", "VL": "QIVLTQSPAIMSASPGEKVTMTCSASSSVSYMYWYQQKSGTSPKRWIYDTSKLASGVPARFSGSGSGTSYSLTISSMEAEDAATYYCQQWSSNPQFGTGTKLEVK", "notes": "variable heavy chain of 22A; variable light chain of 22A; IgG1; Vl kk4, JK5; From the human La transgenic mouse; also called Group 1 anti-La mab (22A); source: hybridoma cell culture supernatant"}},
  "key": {"[1]": {"target": "T1, eukaryotic human La protein of HeLa cells (Homo sapiens (Human)., UniProt P05455)", "T1 construct": "human La/SS-B autoantigen, endogenous in HeLa cells; also called hLa; source: endogenous, HeLa total extract; endogenous, fixed HeLa cells", "T1 sequence (P05455 whole entry)": "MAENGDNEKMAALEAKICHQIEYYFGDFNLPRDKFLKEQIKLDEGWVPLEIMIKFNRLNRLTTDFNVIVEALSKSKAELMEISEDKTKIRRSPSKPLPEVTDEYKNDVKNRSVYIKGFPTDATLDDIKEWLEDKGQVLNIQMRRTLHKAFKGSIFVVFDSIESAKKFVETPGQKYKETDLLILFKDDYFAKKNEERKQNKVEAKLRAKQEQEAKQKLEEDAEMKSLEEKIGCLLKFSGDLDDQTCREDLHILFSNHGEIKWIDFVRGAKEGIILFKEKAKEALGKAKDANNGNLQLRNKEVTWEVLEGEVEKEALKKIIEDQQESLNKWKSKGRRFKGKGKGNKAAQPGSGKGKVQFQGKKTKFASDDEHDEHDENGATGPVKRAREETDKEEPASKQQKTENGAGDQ", "assay": "SDS-PAGE and immunoblotting; total extracts of human HeLa or mouse 3T3 cells, denatured on the blot; probed with hybridoma supernatants", "settings": "partners not purified"}, "[2]": {"target": "T2, GFP-La fusion protein La_(10–100) (Homo sapiens (Human)., UniProt P05455)", "T2 construct": "human La protein, residues 10-100 (La motif region); cloned into pEGFP-C2; pEGFP-C2 places GFP at the N-terminus of the insert (surmise); also called final La deletion mutant of Group 2; source: HeLa, transfected, in total extract", "T2 sequence (P05455 10-100)": "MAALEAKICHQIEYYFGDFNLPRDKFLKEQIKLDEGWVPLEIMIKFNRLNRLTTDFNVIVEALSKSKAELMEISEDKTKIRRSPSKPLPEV", "assay": "SDS-PAGE and immunoblotting; total extracts of HeLa cells transfected with GFP-La fusion constructs (N- or C-terminally truncated La); probed with anti-La mabs; anti-GFP as control", "settings": "partners not purified"}, "[3]": {"target": "T3, recombinant mouse La protein (Mus musculus (Mouse)., UniProt P32067)", "T3 construct": "mouse La protein, open reading frame cloned into pET28b; also called rmLa; mLa (recombinant)", "T3 sequence (P32067 whole entry)": "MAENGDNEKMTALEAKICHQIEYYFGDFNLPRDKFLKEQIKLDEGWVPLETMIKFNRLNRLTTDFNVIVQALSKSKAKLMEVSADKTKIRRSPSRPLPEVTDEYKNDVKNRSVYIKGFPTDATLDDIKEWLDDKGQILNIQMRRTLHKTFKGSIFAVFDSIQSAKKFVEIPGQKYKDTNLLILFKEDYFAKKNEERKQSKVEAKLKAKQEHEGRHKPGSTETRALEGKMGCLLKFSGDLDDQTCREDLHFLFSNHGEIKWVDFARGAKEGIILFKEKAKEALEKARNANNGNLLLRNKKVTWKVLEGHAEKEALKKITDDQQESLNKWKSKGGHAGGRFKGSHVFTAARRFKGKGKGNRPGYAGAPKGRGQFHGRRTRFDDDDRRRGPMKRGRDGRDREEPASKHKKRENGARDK", "assay": "SDS-PAGE and immunoblotting; human (rhLa) or mouse (rmLa) La protein recombinantly expressed in E. coli, denatured on the blot; probed with hybridoma supernatants", "settings": "one partner purified"}, "[4]": {"target": "T4, recombinant human La protein, full length (aa 1-408), His-tagged (Homo sapiens (Human)., UniProt P05455)", "T4 construct": "also called rhLa; hLa; not shown: His tag, C-terminal, kept", "T4 sequence (P05455 whole entry, the tested form may be a part)": "as the sequence (P05455 whole entry) above", "assay": "SDS-PAGE and immunoblotting; human (rhLa) or mouse (rmLa) La protein recombinantly expressed in E. coli, denatured on the blot; probed with hybridoma supernatants", "settings": "one partner purified"}, "[5]": {"target": "T4, recombinant human La protein, full …", "assay": "SDS-PAGE and immunoblotting; recombinant human La (rhLa) on the blot; probed with purified recombinant 312B Ig4 or 312B ge Ig4", "settings": "both partners purified"}, "[6]": {"target": "T5, His-tagged La deletion mutant La_(278–408) (Homo sapiens (Human)., UniProt P05455)", "T5 construct": "cloned into pET28a", "T5 sequence (P05455 278-408, stated change not applied)": "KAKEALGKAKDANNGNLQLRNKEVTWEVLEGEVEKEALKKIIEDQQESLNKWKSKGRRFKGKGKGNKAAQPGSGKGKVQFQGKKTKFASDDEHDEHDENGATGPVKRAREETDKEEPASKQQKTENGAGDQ", "assay": "SDS-PAGE and immunoblotting; His-tagged full length La and N- and C-terminally truncated La deletion mutants from E. coli (nickel-NTA); probed with 16C; 10-fold the usual amount of protein applied", "settings": "one partner purified"}, "[7]": {"target": "T6, Ro60 antigen (Homo sapiens (assumed), UniProt P10155)", "T6 construct": "Ro60 (Ro/SS-A) antigen used in the anti-Ro ELISA; also called Ro/SS-A", "T6 sequence (P10155 whole entry)": "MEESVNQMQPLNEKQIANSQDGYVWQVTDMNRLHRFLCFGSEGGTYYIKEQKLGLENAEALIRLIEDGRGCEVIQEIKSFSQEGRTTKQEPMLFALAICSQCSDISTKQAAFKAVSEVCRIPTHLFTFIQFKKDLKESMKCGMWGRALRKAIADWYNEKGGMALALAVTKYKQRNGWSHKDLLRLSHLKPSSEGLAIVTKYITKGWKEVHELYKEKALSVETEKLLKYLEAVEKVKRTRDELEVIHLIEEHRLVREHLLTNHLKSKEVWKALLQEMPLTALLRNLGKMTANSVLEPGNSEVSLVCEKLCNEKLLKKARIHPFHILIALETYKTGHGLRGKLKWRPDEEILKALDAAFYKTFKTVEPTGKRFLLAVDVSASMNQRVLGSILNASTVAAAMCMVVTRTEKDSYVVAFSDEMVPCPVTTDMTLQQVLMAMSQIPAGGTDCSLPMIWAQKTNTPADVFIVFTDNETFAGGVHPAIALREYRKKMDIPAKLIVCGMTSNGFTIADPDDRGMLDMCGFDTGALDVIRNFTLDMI", "assay": "ELISA; hybridoma supernatants on Ro60 antigen; performed as in ref. 59"}, "[8]": {"target": "T7, GFP-La fusion protein La_(107–200) (Homo sapiens (Human)., UniProt P05455)", "T7 construct": "cloned into pEGFP-C2; pEGFP-C2 places GFP at the N-terminus of the insert (surmise); also called final La deletion mutant of Group 1; source: HeLa, transfected, in total extract", "T7 sequence (P05455 107-200)": "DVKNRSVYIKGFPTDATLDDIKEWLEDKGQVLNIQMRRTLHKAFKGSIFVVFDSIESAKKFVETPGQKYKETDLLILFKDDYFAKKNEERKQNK", "assay": "SDS-PAGE and immunoblotting; total extracts of HeLa cells transfected with GFP-La fusion constructs (N- or C-terminally truncated La); probed with anti-La mabs; anti-GFP as control", "settings": "partners not purified"}},
  "note": "Where a chain is given by its changes, count along the chain named.",
  "data": [
    {"binder": "B1", "values": [
      {"measurement": "binding result", "setting": "[1]", "result": "binds"},
      {"measurement": "binding result", "setting": "[2]", "result": "binds"},
      {"measurement": "binding result", "setting": "[3]", "result": "binds"},
      {"measurement": "binding result", "setting": "[4]", "result": "binds"}
    ]},
    {"binder": "B2", "values": [
      {"measurement": "binding result", "setting": "[5]", "result": "binds"}
    ]},
    {"binder": "B3", "values": [
      {"measurement": "binding result", "setting": "[5]", "result": "no binding"}
    ]},
    {"binder": "B4", "values": [
      {"measurement": "binding result", "setting": "[6]", "result": "binds"}
    ]},
    {"binder": "B5", "values": [
      {"measurement": "binding result", "setting": "[2]", "result": "binds"}
    ]},
    {"binder": "B6", "values": [
      {"measurement": "binding result", "setting": "[7]", "result": "binds"},
      {"measurement": "binding result", "setting": "[4]", "result": "no binding"}
    ]},
    {"binder": "B7", "values": [
      {"measurement": "binding result", "setting": "[8]", "result": "binds"}
    ]},
    {"binder": "B8", "values": [
      {"measurement": "binding result", "setting": "[1]", "result": "binds"},
      {"measurement": "binding result", "setting": "[2]", "result": "binds"},
      {"measurement": "binding result", "setting": "[4]", "result": "binds"}
    ]},
    {"binder": "B9", "values": [
      {"measurement": "binding result", "setting": "[2]", "result": "binds"}
    ]},
    {"binder": "B10", "values": [
      {"measurement": "binding result", "setting": "[8]", "result": "binds"}
    ]}
  ]
}
